Experimental data reported in PMC5117717 (2016).

Experiments:
RadA-ct = RadA-ct (Pyrococcus furiosus); experiment: ITC
HumRadA33 = HumRadA33 (Pyrococcus furiosus, UniProt O74036 108-349, S167K | V168A | I169M | W170Y | N175G | I182L | R183L | D192S | P193G | D194S | …); experiment: ITC

## Ac-NLGTFMRADEYLKKRA-NH2 [RadA oligomerisation peptide]
RadA-ct
  Kd: 0.6 µM
HumRadA33
  Kd: 13 µM
